This data set deals with the molecule itself. The data set is described as follows: AUC; sedimentation velocity; 30 µM unphosphorylated protein in 50 mM HEPES pH 7.5, 100 mM NaCl; 45,000 rpm; c(s) analysis with SEDFIT; monomer and dimer peaks.

B1: MST4 kinase domain (residues 1-300), unphosphorylated (domain or fragment)
chain: not shown
notes: MST4 (mammalian Ste20-like kinase 4), human, residues 1-300 with the kinase domain, cloned from a Mammalian Gene Collection clone into pLIC-SGC1; Phosphorylation was removed with lambda-phosphatase; also called mammalian Ste20-like kinase 4; source: E. coli BL-21(DE3)-R3-pRARE2, purified (Ni-NTA, TEV cleavage, lambda-phosphatase, Superdex 200 SEC, MonoQ); not shown: His6, N-terminal, cleaved
Regarding B1, the stoichiometry N (as a rule, the number of molecules, sites or subunits per partner or assembly) came out at 2.

(Values after article PMC2920948, “Structural Comparison of Human Mammalian Ste20-Like Kinases” (PLoS ONE, 2010).)
